Laboratory results from US12459996B2, “Methods for treating alcohol-induced brain injury and reducing alcohol addiction” (The Regents of the University of California, priority 2017, dated 2025).

Tested on: cultured GFAP+F4/80- astrocytes
Assay: IL-1β stimulation of cultured astrocytes, gene expression microarray
Format: cell-based, mouse
Conditions: 5 ng/ml, 24 h
Description: Whole mouse genome gene expression via Microarray: Primary astrocytes (5×10^5) were stimulated with IL-1β (5 ng/ml), TGF-β1(5 ng/ml) or vehicle for 24 h, harvested, and mRNA was purified using RNAeasy™ columns (Qiagen); and 160 ng of purified RNA per sample was labeled using the LRILAK PLUS™, 2-color, low RNA input Linear Amplification kit and hybridized to a Whole Mouse Genome Microarray 4×44 K™ 60mer slide according to the manufacturer's instructions (Agilent, Santa Clara, CA). Slides were scanned using the Agilent GZ505B Scanner™ and analyzed using the Gene Spring Software™ (Agilent).
To determine the effect of microglia-derived cytokines on astrogliosis 21,22, cultured GFAP^+F4/80-astrocytes were in vitro stimulated with TGF-β1 or IL-β. […] In addition, cultured astrocytes expressed glutamate receptors (mGluRs) that mediate neuron-astrocyte signaling (FIG. 14D). Under pathological conditions, neurodegeneration triggers expansion of reactive astrocytes, upregulation of TGF-β 1, and mGuRs, which together generate neuroprotective effects^24.
FIG. 14A: Primary GFAP^+F4/80^− astrocytes and GFAP^−F4/80^+ microglial cells were isolated from Wt mice, and phenotyped by immunocytochemistry. Cell purity was calculated as percent of total cells (representative images ×20 objective). […] The data are average of (triplicates). FIG. 14B-C: Cultured astrocytes (5×10^5 cells per ml) were stimulated with TGF-β1 (5 ng/ml), or IL-1β (5 ng/ml), or PBS, and subjected to the customized gene expression microarray (Agilent. FIG. 14B: GO enrichment profile for IL-1β- and FIG. 14C: TGF-β- (vs PBS-) stimulated astrocytes is shown.

Substance: IL-β1: IL-1β cytokine (5 ng/ml) used to stimulate cultured astrocytes
- CCL2, fold induction vs vehicle: 200 fold
- CCL5, fold induction vs vehicle: 13 fold
- CCL7, fold induction vs vehicle: 400 fold
- Cxcl1, fold induction vs vehicle: 14 fold
- IL-6, fold induction vs vehicle: 20 fold
